From PMC5809500 come the findings set out here.

Assay [1] addresses anti-NIP hIgG1-LS (M428L/N434S) (human | mouse). The experiment in a line: MST; 20 nM NT-647-labelled hIgG1 variant constant, hFcRn titrated (60,000–0.3 nM); PBS, 0.01% Tween 20, pH 7.4; 25 °C; Monolith NT.115.
In assay [2] the target is WT anti-NIP hIgG1 (chimeric hIgG1 with mouse lambda light chain, hIgG1 constant HC and a VH specific for NIP) (human | mouse). Described as above.
The target of assay [3] is anti-NIP hIgG1-YTE (M252Y/S254T/T256E) (human | mouse). Described as above.
The target in assay [4] is anti-NIP hIgG1-KF (H433K/N434F) (human | mouse). Described as above.
The target of assay [5] is WT anti-NIP hIgG1 (chimeric hIgG1 with mouse lambda light chain, hIgG1 constant HC and a VH specific for NIP) (human | mouse). The experiment in a line: MST; 20 nM NT-647-labelled hIgG1 variant constant, hFcRn titrated (60,000–0.3 nM); 100 mM phosphate buffer, 150 mM NaCl, 0.01% Tween 20, pH 5.5; 25 °C; Monolith NT.115.
For assay [6], the target named is anti-NIP hIgG1-YTE/KF (M252Y/S254T/T256E/H433K/N434F) (human | mouse). Described as above.
Assay [7] concerns the target anti-NIP hIgG1-YTE (M252Y/S254T/T256E) (human | mouse). Described as above.
Assay [8] concerns the target anti-NIP hIgG1-KF (H433K/N434F) (human | mouse). The description is as above.
In assay [9] the target is hFcRn coupled to the affinity column (analytical hFcRn affinity chromatography) (UniProt P55899). The experiment in a line: analytical hFcRn affinity chromatography; hFcRn coupled to the column; 50 µl hIgG1 variant (1 mg/ml) injected, eluted by a linear pH gradient from pH 6.0 to 8.8 within 110 min (20 mM MES, 140 mM NaCl / 20 mM Tris/HCl, 140 NaCl).
Assay [10] concerns the target Truncated monomeric His-tagged hFcRn (three extracellular domains of the hFcRn HC with human β2-microglobulin) (human) (UniProt P55899).

Bounds are passed on as bounds.

Usually Kd stands for the equilibrium constant for the complex coming apart. With “Truncated monomeric His-tagged hFcRn (three extracellular domains of the hFcRn HC with human β2-microglobulin) (from UniProt P55899 24-297; P61769 21-119) (receptor)”, the dissociation constant (Kd) in [1] is 7000 nM; in assay [2], more than 60000 nM; in assay [3], more than 20000 nM; in assay [4] it was 3300 nM; in assay [5], 964 nM; in assay [6], 9.3 nM. Besides, the Kd in assay [7] was 166 nM; in assay [8], 53.4 nM.

Substance “WT anti-NIP hIgG1 (chimeric hIgG1 with mouse lambda light chain, hIgG1 constant HC and a VH specific for NIP) (antibody)” yielded a pH of the elution peak from the hFcRn column in [9] of 7 pH.

“anti-NIP hIgG1-YTE/KF (M252Y/S254T/T256E/H433K/N434F) (antibody)” had a reduction of recycling of WT anti-hexon hIgG1 (500 nM) by HMEC1-hFcRn cells (HERA, pH 7.4) with 2 µM YTE/KF; the pair blocked is WT hIgG1 and hFcRn in assay [10] of 50%.
